Reference: article PMC3017601 (Nucleic Acids Research, 2010)

Biological target: the molecule itself
Test: SEC

B1: SMG-9 (natural protein)
chain: MSESGHSQPGLYGIERRRRWKEPGSGGPQNLSGPGGRERDYIAPWERERRDASEETSTSVMQKTPIILSKPPAERSKQPPPPTAPAAPPAPAPLEKPIVLMKPREEGKGPVAVTGASTPEGTAPPPPAAPAPPKGEKEGQRPTQPVYQIQNRGMGTAAPAAMDPVVGQAKLLPPERMKHSIKLVDDQMNWCDSAIEYLLDQTDVLVVGVLGLQGTGKSMVMSLLSANTPEEDQRTYVFRAQSAEMKERGGNQTSGIDFFITQERIVFLDTQPILSPSILDHLINNDRKLPPEYNLPHTYVEMQSLQIAAFLFTVCHVVIVVQDWFTDLSLYRFLQTAEMVKPSTPSPSHESSSSSGSDEGTEYYPHLVFLQNKARREDFCPRKLRQMHLMIDQLMAHSHLRYKGTLSMLQCNVFPGLPPDFLDSEVNLFLVPFMDSEAESENPPRAGPGSSPLFSLLPGYRGHPSFQSLVSKLRSQVMSMARPQLSHTILTEKNWFHYAARIWDGVRKSSALAEYSRLLA
  stoichiometry N: ~2
